Measured values published in publication PMC7299630.

B1: HTR2C RNA duplex probe (structured_RNA)
RNA: AUCAUGCACCUCUGCGCUAUAUCGCUGGAUCGGUAUGUAGCAAUACGUAAUCCUAUUGAGCAUAGCCGUUUCAAUUCGCGGACUAAGGCCAUCAUGAAGAUUGCUAUUGUUUGGGCAAUUUCUAUAGGUAAAUAAAACUUUUUGGCCAUAAGAAUUGCAGCGGCUAUGCUCAAUACUUUCGGAUUAUGUACUGUGAACAACGUACAGACGUCGACUGGUAACAUUUGCGUUUGAUCGGGUUCU
B2: MAGT1 RNA duplex probe (structured_RNA)
RNA: GCUAAUUUUUGUGUUUUUAGUAGAGACCUCGAGGUCUCUACUAAAAAUAUGAAAAUUAGC

Molecular target: DAP3-GST (UniProt P51398 1-398)
Assay: EMSA

Binder | binding result
B1 | no binding
B2 | no binding
